Measured values reported in patent publication US20170131282A1.

Tests used:
Assay in all cases: cell-based or functional assay
[1] = target: mouse chemokine receptor CCR3 (NM_009914) on mouse prostate tumor cells (TRAMP-C1P3, RM1-BM) (mouse) (UniProt P51678)
[2] = target: human chemokine receptor CCR3 on human prostate tumor cells (PC-3, Du-145) (human) (UniProt P51677)
[3] = target: mouse chemokine CCL7 secreted in conditioned media of mouse adipocytes / adipose tissue (mouse) (UniProt Q03366)
UniProt Q03366, sequence (Q03366 24-97): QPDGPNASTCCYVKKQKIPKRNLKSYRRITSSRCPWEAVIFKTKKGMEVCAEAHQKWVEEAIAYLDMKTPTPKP

UniProt P51678, sequence (P51678 whole entry): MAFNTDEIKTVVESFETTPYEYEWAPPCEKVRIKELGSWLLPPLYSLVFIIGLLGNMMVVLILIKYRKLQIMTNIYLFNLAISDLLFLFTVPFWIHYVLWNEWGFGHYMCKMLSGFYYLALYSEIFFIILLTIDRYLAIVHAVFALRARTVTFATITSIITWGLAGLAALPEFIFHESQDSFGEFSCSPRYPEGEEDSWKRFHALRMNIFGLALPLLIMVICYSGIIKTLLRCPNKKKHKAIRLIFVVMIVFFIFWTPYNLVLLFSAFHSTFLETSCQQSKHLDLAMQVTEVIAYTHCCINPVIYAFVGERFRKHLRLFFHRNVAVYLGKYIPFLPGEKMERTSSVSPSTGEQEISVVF
UniProt P51677, sequence (P51677 whole entry): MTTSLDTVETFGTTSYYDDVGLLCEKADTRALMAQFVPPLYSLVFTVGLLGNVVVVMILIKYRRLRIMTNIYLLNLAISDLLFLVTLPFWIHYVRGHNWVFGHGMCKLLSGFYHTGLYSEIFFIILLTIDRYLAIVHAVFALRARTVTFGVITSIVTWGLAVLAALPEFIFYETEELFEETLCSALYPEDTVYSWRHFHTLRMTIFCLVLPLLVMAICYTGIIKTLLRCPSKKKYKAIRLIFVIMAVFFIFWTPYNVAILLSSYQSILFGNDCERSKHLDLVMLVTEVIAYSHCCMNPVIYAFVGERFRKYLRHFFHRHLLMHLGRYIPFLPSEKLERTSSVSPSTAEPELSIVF

Row | Substance | chemotaxis of TRAMP-C1P3 cells (Boyden chamber), dose from which it is seen [1] | migration of RM1-BM cells (Boyden chamber) [1] | migration of PC-3 and Du-145 prostate cells (Boyden chamber), dose from which the effect is significant [2] | inhibition of migration of PC-3 and Du-145 cells against CM-Ad (Boyden chamber) [3] | inhibition of migration of PC-3 cells against CM of HFD AT-mu-PG (obese mice) [3] | inhibition of migration of PC-3 cells against CM of ND AT-mu-PG (normal-weight mice) [3]
1 | human chemokine CCL7 (from UniProt P80098 24-99) (ligand) | > 50 ng/mL | 100 ng/mL | > 50 ng/mL | – | – | –
2 | blocking antibody targeted against CCL7 (AF-456-NA, R&D System) | – | – | – | 50 % inhibition | 60 % inhibition | 25 % inhibition
